Assay [1] deals with Protein H (Streptococcus pyogenes (strain AP1)). In words: SEC; Superose 6 10/30; 5 nmol Protein H alone at 8°C and 28°C; column calibrated with high molecular weight markers; monomer to dimer. In general terms: In gel filtration, larger molecules generally elute earlier.
Assay [2] addresses C4b-binding protein (C4BP), human, purified from plasma (human) (UniProt P04003). In words: SEC; Superose 6 10/30, PBS, ambient temperature; 0.25 nmol C4BP with varying amounts of Protein H, pre-incubated 30 min at room temperature; area of the free Protein H peak fitted.
Assay [3] deals with Protein H (Streptococcus pyogenes (strain AP1)). In words: MST; Monolith NT.115; Alexa-488-labelled Protein H constant at 0.5 nM, C4BP at 16 concentrations; 50 mM Tris-HCl pH 7.4, 150 mM NaCl, 10 mM MgCl2, 0.05% Tween-20; 37°C.
Target sequence in this assay (P50470 42-345 limits assumed): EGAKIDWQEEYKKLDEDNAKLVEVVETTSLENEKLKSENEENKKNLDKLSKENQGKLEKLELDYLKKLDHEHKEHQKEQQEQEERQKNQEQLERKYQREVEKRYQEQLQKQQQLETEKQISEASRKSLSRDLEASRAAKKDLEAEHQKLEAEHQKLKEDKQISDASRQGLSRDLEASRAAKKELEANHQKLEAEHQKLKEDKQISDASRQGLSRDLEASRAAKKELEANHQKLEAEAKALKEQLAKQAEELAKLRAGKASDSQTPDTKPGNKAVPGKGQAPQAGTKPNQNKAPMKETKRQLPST
The target of assay [4] is Protein H on the surface of Streptococcus pyogenes AP1 (Streptococcus pyogenes (endogenous in strain AP1)).

Sequence of C4b-binding protein (C4BP), human, purified from plasma (P04003 49-597): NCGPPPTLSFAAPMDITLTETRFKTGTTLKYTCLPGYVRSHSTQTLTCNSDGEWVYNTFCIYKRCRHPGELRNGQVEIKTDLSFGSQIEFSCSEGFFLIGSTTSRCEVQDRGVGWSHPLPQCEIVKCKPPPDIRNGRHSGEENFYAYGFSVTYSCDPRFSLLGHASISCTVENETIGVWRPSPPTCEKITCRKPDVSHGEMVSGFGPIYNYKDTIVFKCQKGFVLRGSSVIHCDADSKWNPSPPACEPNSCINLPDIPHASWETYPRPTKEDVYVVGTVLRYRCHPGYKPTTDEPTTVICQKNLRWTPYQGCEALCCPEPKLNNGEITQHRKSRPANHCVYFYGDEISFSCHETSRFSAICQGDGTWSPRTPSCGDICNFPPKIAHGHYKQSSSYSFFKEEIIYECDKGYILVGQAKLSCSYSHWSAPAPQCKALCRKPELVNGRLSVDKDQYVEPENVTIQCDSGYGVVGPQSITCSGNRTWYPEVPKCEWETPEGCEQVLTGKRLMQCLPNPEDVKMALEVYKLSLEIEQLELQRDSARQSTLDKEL
Sequence of C4b-binding protein (C4BP), human, purified from plasma (P20851 18-252): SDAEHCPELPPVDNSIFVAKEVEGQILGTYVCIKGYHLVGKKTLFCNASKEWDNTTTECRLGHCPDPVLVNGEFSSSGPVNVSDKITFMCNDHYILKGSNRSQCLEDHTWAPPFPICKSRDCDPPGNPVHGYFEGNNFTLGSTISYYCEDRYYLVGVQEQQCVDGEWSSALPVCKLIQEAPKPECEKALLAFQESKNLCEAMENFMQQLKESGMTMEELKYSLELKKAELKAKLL
Sequence of C4b-binding protein (C4BP), human, purified from plasma (human) (P04003 49-597, chain 1 of 2): as the sequence (P04003 49-597) above
Sequence of C4b-binding protein (C4BP), human, purified from plasma (human) (P20851 18-252, chain 2 of 2, further chain): as the sequence (P20851 18-252) above

Take Protein H (natural protein): the stoichiometry N in assay [1] was 2. In addition, the stoichiometry N (Protein H monomers per C4BP) in assay [2] stood at 26. Turning to “C4b-binding protein (C4BP), human, purified from plasma (from UniProt P04003 49-597; P20851 18-252) (complex)”, in assay [3], the Kd was 180 nM.

With “Protein H on the surface of Streptococcus pyogenes AP1 (natural protein)”, the aggregation of S. pyogenes AP1 grown overnight at 35°C, 37°C or 41°C (OD600 before against after vortexing); at 41°C all bacteria remained dispersed in assay [4] worked out at 70%.

The stoichiometry N is the number of molecules, sites or subunits per partner or assembly. As usually defined, the Kd is the free concentration of one partner at which half of the binding sites on the other are occupied at equilibrium, for simple one-to-one binding. Low readings indicate tighter binding, high ones weaker binding.
